{"source": "patent US20120107299", "proteins": {"B1": {"name": "GST (Glutathione S-Transferase)-NDRG2 fusion protein (protein)", "chain": "MAELQEVQITEEKPLLPGQTPEAAKTHSVETPYGSVTFTVYGTPKPKRPAILTYHDVGLNYKSCFQPLFQFEDMQEIIQNFVRVHVDAPGMEEGAPVFPLGYQYPSLDQLADMIPCVLQYLNFSTIIGVGVGAGAYILARYALNHPDTVEGLVLINIDPNAKGWMDWAAHKLTGLTSSIPEMILGHLFSQEELSGNSELIQKYRNIITHAPNLDNIELYWNSYNNRRDLNFERGGDITLRCPVMLVVGDQAPHEDAVVECNSKLDPTQTSFLKMADSGGQPQLTQPGKLTEAFKYFLQGMGYMASSCMTRLSRSRTASLTSAASVDGNRSRSRTLSQSSESGTLSSGPPGHTMEVSC"}}, "key": {"pThr383 PTEN": {"molecular_target": "T1, pThr383 PTEN", "T1 chain": "EPDHYRYSDTTDSDPENE"}, "pThr382/pThr 383 PTEN": {"molecular_target": "T2, pThr382/pThr 383 PTEN", "T2 chain": "EPDHYRYSDTTDSDPENE"}, "[1]": {"molecular_target": "T3, pSer380/pThr382/pThr 383 PTEN", "T3 chain": "EPDHYRYSDTTDSDPENE"}, "pSer380 PTEN": {"molecular_target": "T4, pSer380 PTEN", "T4 chain": "EPDHYRYSDTTDSDPENE"}, "pThr382 PTEN": {"molecular_target": "T5, pThr382 PTEN", "T5 chain": "EPDHYRYSDTTDSDPENE"}}, "data": [{"protein": "B1", "values": [{"measurement": "dephosphorylation of phosphorylated peptides (DOTBLOT method)", "setting": "pThr383 PTEN", "result": "cannot dephosphorylate the peptide wherein only S380 or only T383 is phosphorylated"}, {"measurement": "dot blot phosphatase assay, detection with rabbit anti-Phospho-PTEN (Ser380/Thr382/Thr383) polyclonal antibodies", "setting": "pThr382/pThr 383 PTEN", "result": "signals disappeared in the phosphorylated peptides at Thr382, Thr382/Thr383, and Ser380/Thr382/Thr383 by the reaction with NDRG2 protein"}, {"measurement": "production level of the phosphoric acid groups (phosphopeptide phosphatase assay, BIOMOL GREEN)", "setting": "pThr382/pThr 383 PTEN", "result": "an increase in the production level of the phosphoric acid groups in the Thr382/Thr383 peptide and Ser380/Thr382/Thr383 peptide was recognized compared to the phosphorylation of Thr382 alone"}, {"measurement": "dot blot phosphatase assay, detection with rabbit anti-Phospho-PTEN (Ser380/Thr382/Thr383) polyclonal antibodies", "setting": "[1]", "result": "signals disappeared in the phosphorylated peptides at Thr382, Thr382/Thr383, and Ser380/Thr382/Thr383 by the reaction with NDRG2 protein"}, {"measurement": "dot blot phosphatase assay, detection with rabbit anti-phospho-PTEN (Ser380) polyclonal antibodies", "setting": "[1]", "result": "a signal disappeared in the phosphorylated peptide of Ser380/Thr382/Thr383 by the reaction with NDRG2 protein"}, {"measurement": "production level of the phosphoric acid groups (phosphopeptide phosphatase assay, BIOMOL GREEN)", "setting": "[1]", "result": "an increase in the production level of the phosphoric acid groups in the Thr382/Thr383 peptide and Ser380/Thr382/Thr383 peptide was recognized compared to the phosphorylation of Thr382 alone"}, {"measurement": "in vitro dephosphorylation of PTEN, Western blot with anti-PTEN antibodies specific to each phosphorylation", "setting": "FLAG-PTEN, P60484", "result": "dephosphorylation effects were recognized in BAP used as a positive control, and in GST-NDRG2"}, {"measurement": "phosphorylation status of PTEN protein by various PTEN phosphorylation antibodies after the reaction", "setting": "FLAG-PTEN, P60484", "result": "only S380, T382, and T383 are dephosphorylated by mixing with NDRG2, and S370 and S385 are not altered"}, {"measurement": "dephosphorylation of phosphorylated peptides (DOTBLOT method)", "setting": "pSer380 PTEN", "result": "cannot dephosphorylate the peptide wherein only S380 or only T383 is phosphorylated"}, {"measurement": "dephosphorylation activity (phosphopeptide phosphatase assay, free phosphate by BIOMOL GREEN)", "setting": "pThr382 PTEN", "result": "NDRG2 showed a dephosphorylation activity against the peptide including the phosphorylation at Thr382 of PTEN"}, {"measurement": "dot blot phosphatase assay, detection with rabbit anti-Phospho-PTEN (Ser380/Thr382/Thr383) polyclonal antibodies", "setting": "pThr382 PTEN", "result": "signals disappeared in the phosphorylated peptides at Thr382, Thr382/Thr383, and Ser380/Thr382/Thr383 by the reaction with NDRG2 protein"}]}]}
